Test results reported in PMC7055916.

Biological target: T. brucei PNUTS with PTP tag, bloodstream form (T. brucei)
Experiment: co-sedimentation; extracts of bloodstream form T. brucei expressing PNUTS-PTP and JBP3-HA or Wdr82-HA on 5-50% sucrose gradients, 38000 rpm 18 hours, fractions analysed by western blot

Substance	stoichiometry N
T. brucei Wdr82 with 3x HA tag, bloodstream form (natural protein)	1
T. brucei JBP3 with 3x HA tag, bloodstream form (natural protein)	1
